These results are taken from PMC10436073, “Saccharomyces cerevisiae NRE1 and IRC24 Encode Paralogous Benzil Oxidoreductases” (microPublication Biology, 2023).

Substrate in the data set: O=C(C(=O)c1ccccc1)c1ccccc1
As to the kind of experiment: purified protein. In kind it is biochemical, Saccharomyces cerevisiae. As to conditions: NADPH 0.075 mM (preferred cofactor; NADH also measured), 10 mM Tris-HCl pH 8.0, 30 C, apparent Km.

B1: Irc24p (Saccharomyces cerevisiae S288C) (protein)
chain: MGKVILITGASRGIGLQLVKTVIEEDDECIVYGVARTEAGLQSLQREYGADKFVYRVLDITDRSRMEALVEEIRQKHGKLDGIVANAGMLEPVKSISQSNSEHDIKQWERLFDVNFFSIVSLVALCLPLLKSSPFVGNIVFVSSGASVKPYNGWSAYGCSKAALNHFAMDIASEEPSDKVRAVCIAPGVVDTQMQKDIRETLGPQGMTPKALERFTQLYKTSSLLDPKVPAAVLAQLVLKGIPDSLNGQYLRYNDERLGPVQG
As a reminder, the Km is the concentration of substrate that gives half-maximal velocity. With B1, the Michaelis-Menten constant (Km) was 420 µM.

B2: Nre1p (Saccharomyces cerevisiae S288C) (protein)
chain: MGKVILVTGVSRGIGKSIVDVLFSLDKDTVVYGVARSEAPLKKLKEKYGDRFFYVVGDITEDSVLKQLVNAAVKGHGKIDSLVANAGVLEPVQNVNEIDVNAWKKLYDINFFSIVSLVGIALPELKKTNGNVVFVSSDACNMYFSSWGAYGSSKAALNHFAMTLANEERQVKAIAVAPGIVDTDMQVNIRENVGPSSMSAEQLKMFRGLKENNQLLDSSVPATVYAKLALHGIPDGVNGQYLSYNDPALADFMP
Regarding B2, the Michaelis-Menten constant (Km) came out at 390 µM.
